Measurements reported in patent US20210340276A1 (Astellas, published 2021).
Read-outs that look alike come from different tables or passages of the source.

Key:
Experiment in all cases: ELISA, MUC1 peptide immobilized on 384-well plate, HRP anti-human Igκ detection, luminescence
[1] = biological target: T1, Human cancer-specific MUC1 peptide (PTL 1) (human)
T1 construct: Immobilized at 0.5 µmol/L per well on a 384-well ELISA plate
Procedure: (§1) Human cancer-specific MUC1 peptide (PTL 1) was immobilized at 0.5 μmol/L per well onto a 384-well ELISA plate. The resultant was reacted with each anti-human MUC1 antibody Fab fragment conjugate described above (sample No. 5, 6, 7, or 3) and then reacted with a horseradish peroxidase-labeled goat anti-human Igκ antibody (Southern Biotechnology Associates, Inc.) as a secondary antibody. ECL Prime Western Blotting Detection Reagent (GE Healthcare Japan Corp.) was added thereto for luminescence, and the degree of the luminescence was examined.

[2] = biological target: T1, Human cancer-specific MUC1 peptide (PTL …); remark: listed apart in the source
Procedure: as §1
(§2) Likewise, binding activity evaluation was also conducted as to the anti-human MUC1 antibody Fab fragment conjugates given below.

[3] = biological target: T1, Human cancer-specific MUC1 peptide (PTL …); remark: listed apart in the source
Procedure: as §1, §2

B1: P10-2 Fab (Fab, V domains shown)
VH: QVQLVQSGAEVKKPGASVKVSCKASGYTFTNYGLSWVRQAPGQGLEWMGENHPGSGIIYHNEKFRGRVTLTADRSTSTAYMELSSLRSEDTAVYYCARSSGTRGFDYWGQGTLVTVSS
VL: DVVMTQTPLSLSVTPGQPASISCRSSQSIVHSNGNTYLEWYLQKPGQSPQLLIYRVSNRFSGVPDRFSGSGSGTDFTLKISRVEAEDVGVYYCFQGSHGPWTFGQGTKLEIKR
modifications: heavy chain N-terminal glutamine modified into pyroglutamic acid in a great majority of purified antibodies (Example 2)
notes: expressed in Expi293F cells, purified with KappaSelect; also called anti-human MUC1 antibody Fab fragment P10-2
EC50 [1]: 0.23 nM | EC50 [2]: 0.17 nM | EC50 [3]: 0.16 nM
